Laboratory results from the MegaScale stability set (Tsuboyama et al. 2023).

B1: EEHEE_rd4_0363 (parent)
chain: VTVDIKGMEYHFDNPEEAKKFAERMAKELGGELKVENGTLKVE
B2: HEEH_KT_rd6_3632 (parent)
chain: DAEELIELVERALKEGREIILLGVRITSEEAGKWFIEWIRRFL

Variants of: B1
Experiment: folding stability dG (cDNA display proteolysis); higher = more stable
Settings: PBS, room temperature

Variant	folding stability dG [kcal/mol]
E43N	1.85
E43M	2.49
E43I	3.07
E43G	1.91
E43H	2.21
E43V	3.14
E43Y	2.91
E43D	1.91
E43R	2.04
E43W	2.64
E43Q	2.07
E43L	2.66
E43P	1.16
E43F	2.75
E43S	2.11
E43T	2.38
E43K	1.89

Variants of: B2
Experiment: as above
Settings: PBS, room temperature

Variant	folding stability dG [kcal/mol]
E29W	4.1
E29F	3.88
E29Q	3.97
E29G	3.63
E29R	3.71
E29L	3.93
E29T	3.83
E29M	3.92
E29N	3.81
R40Q	3.32
R40L	3.83
R40T	3.46
R40V	3.48
R40W	3.85
R40P	2.68
R40E	2.85
R40N	3.14
W38A	2.95
W38D	2
W38Q	2.96
W38P	2.26
W38E	2.62
W38V	2.96
W38L	3.42
W38G	2.34

Variant	folding stability dG [kcal/mol]
E10S	3.62
E10W	4.21
E10G	3.28
E10F	3.69
E10Y	3.81
E10H	3.78
E10M	3.84
E10I	4.3
E10C	4.65
E10K	3.93
E37Q	3.67
E37K	3.66
E37M	3.83
E37N	3.62
E37H	3.46
E37S	3.52
E37Y	3.92
E37F	3.7
E37G	3.42
E37D	3.57
E7R	4.18
E7G	3.89
E7N	3.89
E7I	3.79
E7Q	3.79

Variant	folding stability dG [kcal/mol]
E7W	3.83
E7H	3.84
G16Q	3.42
G16K	3.53
G16A	3.84
G16I	4.25
G16S	3.49
G16P	3.26
G16Y	3.67
G16V	3.74
G16E	3.1
G16H	3.58
I20W	3.4
I20P	2.65
I20V	3.66
I20R	3.13
I20M	3.26
I20T	3.73
I20G	2.71
I20L	3.35
F35A	3.03
F35D	2.6
F35M	3.43
F35Y	3.25
F35P	2.34

Variant	folding stability dG [kcal/mol]
F35T	2.96
F35I	3.85
A2I	4.2
A2F	4.2
A2E	3.44
A2R	3.54
A2P	3.65
A2N	3.4
A2L	4.31
K14A	3.73
K14M	3.48
K14Q	3.56
K14N	3.52
K14D	3.25
K14R	3.86
K14I	3.6
K14E	3.54
K14V	3.5
A12W	3.76
A12F	3.42
A12D	2.84
R25V	3.64
R25G	3.32
R25A	3.68
R25I	3.67

Variant	folding stability dG [kcal/mol]
R25K	3.57
R25L	3.81
R25T	3.56
R25W	3.77
R25H	3.72
L5C	3.74
L5P	2.82
L5T	3.08
L5A	2.97
L5D	3.02
L5W	3.67
L5G	2.88
L5N	2.72
L5K	2.83
T27V	3.91
T27R	3.52
T27W	3.95
T27M	3.88
T27K	3.59
T27G	3.67
T27D	4.05
E15N	3.57
E15Y	3.67
E15M	3.68
E15R	3.38

Variant	folding stability dG [kcal/mol]
R17G	3.3
R17K	3.59
R17H	3.54
R17S	3.27
R17L	3.9
R17N	3.3
G32N	3.38
G32D	3.14
G32L	4.17
G32R	3.72
G32T	3.64
G32V	3.86
G32E	3.22
I36N	2.93
I36A	3.35
I36S	3.02
I36W	3.76
I36Y	3.46
G23N	3.31
G23E	3.41
G23H	3.6
G23K	3.55
G23R	3.54
G23I	3.87
G23A	3.67

Variant	folding stability dG [kcal/mol]
K33M	3.57
K33T	3.56
K33E	3.43
K33R	4.02
K33N	3.52
K33A	3.77
K33P	3.2
K33S	3.39
K33L	3.63
K33H	3.51
L13G	2.96
L13Y	3.28
L13C	4.96
L13D	2.97
L13T	3.25
L13M	3.67
L13P	2.88
L13W	3.43
L13V	3.54
A31Q	3.99
A31G	3.71
A31H	3.68
A31I	4.34
A31W	4.01
E18M	3.66

Variant	folding stability dG [kcal/mol]
E18S	3.83
E18Y	3.78
E18P	3.64
E18V	3.91
E18R	3.79
R41W	4.14
R41H	3.64
R41C	4.34
R41V	3.7
R41Y	3.81
R41F	3.95
R41P	2.84
S28K	3.17
S28L	3.73
S28N	3.78
S28Y	3.47
S28F	3.62
S28A	3.52
S28V	3.57
S28R	3.43
S28H	3.36
S28W	3.91
L8Y	3.49
L8W	3.7
L8K	3.46

Variant	folding stability dG [kcal/mol]
L8V	3.26
L8H	3.26
L8N	2.93
L8M	3.69
L22H	3.12
L22C	4.73
L22G	3.01
L22R	3.31
L22E	2.7
L22N	3.05
L22K	3.05
L22P	2.68
L22Q	3.13
L22W	4.08
L22I	3.56
V24G	3.22
V24A	3.15
V24H	3.42
V9N	2.91
V9I	3.79
V9S	2.75
V9K	2.75
V9G	2.81
V9E	2.87
D1L	4.31

Variant	folding stability dG [kcal/mol]
D1W	4.64
D1T	4
D1V	4.07
D1Y	4.26
D1S	3.98
D1M	4.11
D1F	4.2
F42I	3.67
F42H	3.45
F42T	3.35
F42K	3.15
F42N	3.19
F42A	3.21
F42S	3.15
F42P	2.5
L21G	2.83
L21W	3.33
L21H	2.92
L21A	3.37
L21Q	2.93
L21E	3.06
L21R	3.14
L21F	3.49
W34T	3.45
W34Q	3.64

Variant	folding stability dG [kcal/mol]
W34F	3.42
W34V	3.35
W34E	3.41
I39N	2.64
I39T	2.46
I39A	2.92
I39V	3.62
I39E	2.69
I39D	2.51
I39C	3.49
I39Q	2.63
I6Y	3.38
I6M	3.3
I6K	3.24
I6Q	3.16
I6N	3.11
R11I	3.62
R11K	3.65
R11A	3.52
R11L	3.47
R11H	3.45
R11P	3.08
R11W	3.66
E4F	4.15
E4V	3.91

Variant	folding stability dG [kcal/mol]
E4H	4.09
E4K	4.18
E4G	3.92
E4R	4.21
I26A	3.34
I26M	3.32
I26G	2.89
I26C	4.36
I26Y	3.34
I26N	3.21
I26T	3.49
I26K	3.26
I26E	3.33
E3T	3.83
E3P	3.46
E3Q	3.94
E3Y	4.02
E3K	3.8
E3F	4.06
E3H	4.02
E3W	4.15
E3G	3.69
I19V	3.4
I19D	2.66
I19W	3.44

Variant	folding stability dG [kcal/mol]
I19Q	2.91
I19F	3.43
I19L	3.56
L43S	3.17
L43A	3.35
L43M	3.81
L43W	3.89
L43D	2.75
L43I	3.61
L43G	3.03
L43P	2.62
E30Q	3.77
E30H	3.59
E30A	4
E30G	3.64
E30D	3.63
E30Y	3.75
